Test [1] relates to NIH:Swiss mice. Nature of the test: Food intake assay. The class given is in vivo, mouse. The conditions noted are these: IP, dose 10 nmol/kg. The protocol:
All mice (NIH:Swiss mice) are housed in a stable environment of 22 (±2)° C., 60 (±10)% humidity and a 12:12 light:dark cycle; with lights on at 0300. Mice are housed in groups of three in standard cages with ad libitum access to food (Teklad: LM 485; Madison, Wis.) and water except as noted, for at least two weeks before the experiments.
All experiments are conducted between the hours of 0700 and 0900. The mice are food deprived (food removed at 1530 hr from all animals on day prior to experiment). […] The food pellet is weighed at 30-minute, 1-hr, and 2-hr intervals to determine the amount of food eaten.
Significant test sample effects are identified by ANOVA (p<0.05). Where a significicant difference exists, test means are compared to the control mean using Dunnett's test. One-way ANOVA with Dunnett's post test is performed using GraphPad Prism version 3.01 for Windows, GraphPad Software, San Diego Calif.

Test [2] relates to NH/Swiss mice. Nature of the test: Glucose lowering assay. The class given is in vivo, mouse. Conditions: IP, 2 nmol/kg, change in blood glucose relative to vehicle. Here is the method: Female NH/Swiss mice (˜8-20 weeks of age), (Harlan, Indianapolis, Ind., USA), housed 3 mice per cage, are allowed ad libitum access to food and water until the start of the experiment. At two hours prior to treatment, access to food is restricted.
At the time of treatment, the tip of the tail is pricked with a needle to obtain 1 μl blood as a “pre-treatment” control blood sample. Immediately thereafter, each mouse is injected intraperitoneally (IP) with a test sample (1 nmol/kg or 2 nmol/kg) or 200 μl vehicle (10% DMSO saline). Additional blood samples are collected at 30, 60, 120, 180, and 240 minutes after injection.
Blood glucose is measured with a glucose oxidase biosensor (OneTouch® Ultra® (LifeScan, Inc., a Johnson & Johnson Company, Milpitas, Calif.)). At each time point, the effect of the test sample is expressed as the percent change in blood glucose relative to mice injected with vehicle only. Test samples and vehicle controls are also compared to their respective “pre-treatment” controls.
Significant test sample effects are identified by ANOVA (p<0.05). Where a significant difference existed, test means are compared to the control mean with Dunnett's post test using GraphPad Prism version 4.00 for Windows, GraphPad Software, San Diego Calif. USA, www.graphpad.com).

Test [3] has as its target T1, GLP-1 receptor, endogenous in RINm5f cells (rat (RIN-m5F are called rat pancreas …, UniProt P32301 22-463)).
T1 sequence (looked up): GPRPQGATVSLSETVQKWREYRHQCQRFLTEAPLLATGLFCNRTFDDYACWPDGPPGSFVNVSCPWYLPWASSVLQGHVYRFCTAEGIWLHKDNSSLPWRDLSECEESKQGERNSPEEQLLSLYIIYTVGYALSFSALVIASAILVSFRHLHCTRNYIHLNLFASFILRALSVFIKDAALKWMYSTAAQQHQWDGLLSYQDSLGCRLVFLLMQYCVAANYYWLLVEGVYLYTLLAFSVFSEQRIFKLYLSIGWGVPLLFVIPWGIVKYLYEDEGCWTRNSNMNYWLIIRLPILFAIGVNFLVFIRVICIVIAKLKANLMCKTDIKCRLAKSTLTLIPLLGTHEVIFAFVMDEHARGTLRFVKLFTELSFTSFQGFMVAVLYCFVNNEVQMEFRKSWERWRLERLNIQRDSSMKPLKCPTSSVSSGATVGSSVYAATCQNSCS
Nature of the test: cell-based or functional assay.

Test [4] deals with T1, GLP-1 receptor, endogenous in RINm5f …. Nature of the test: 125I-GLP-1 displacement, RINm5f membranes.
Test [5] concerns the target T2, GLP-1 receptor, endogenous in RINm5f cells (rat (RIN-m5F are called rat pancreas insulinoma cells)), P32301.
T2 chain: T1 sequence (looked up)
Nature of the test: 125I-GLP-1 displacement, RINm5f membranes.

Test [6] concerns the target T2, GLP-1 receptor, endogenous in RINm5f …. Nature of the test: cell-based or functional assay.

Where no end group is shown, it is not given here. [ ]: non-standard residue; d: D form. Gly(octyl) = CCCCCCCC[C@H](N)C(=O)O

Regarding `CC[C@H](C)[C@H](NC(=O)[C@H](CC(C)C)NC(=O)[C@H](Cc1c[nH]c2ccccc12)NC(=O)[C@H](CCC(=O)O)NC(=O)[C@@H](NC(=O)[C@H](Cc1ccccc1)NC(=O)[C@H](CC(C)C)NC(=O)[C@H](CCCNC(=N)N)NC(=O)[C@@H](NC(=O)[C@H](C)NC(=O)[C@H](CCCCN)NC(=O)[C@H](CCC(=O)O)NC(=O)[C@H](CCC(=O)O)NC(=O)[C@H](CC(C)C)NC(=O)[C@H](CCC(N)=O)NC(=O)[C@H](CCCCN)NC(=O)[C@H](CO)NC(=O)[C@H](CC(C)C)NC(=O)[C@H](CC(=O)O)NC(=O)[C@H](CO)NC(=O)[C@@H](NC(=O)[C@H](Cc1ccccc1)NC(=O)[C@@H](NC(=O)CNC(=O)[C@H](CCC(=O)O)NC(=O)CNC(=O)[C@@H](N)Cc1c[nH]cn1)[C@@H](C)O)[C@@H](C)O)C(C)C)[C@@H](C)CC)C(=O)N[C@@H](CCC(N)=O)C(=O)NCC(=O)NCC(=O)N1CCC[C@H]1C(=O)N[C@@H](CO)C(=O)N[C@@H](CCCCN)C(=O)N[C@@H](CCC(=O)O)C(=O)N[C@H](C(=O)N[C@H](C(=O)N[C@@H](CO)C(=O)O)[C@@H](C)CC)[C@@H](C)CC` [Cmpd 5103], the “FOOD INTAKE at 60 min” value in test [1] was −42%. For the same molecule, the “GLU LOWERING AUC240 @2 nmol/kg” value in test [2] was −17%.
In the case of HGEGTFTSDLSKQLEEEAVRLFIEWLKNPGGKEIIS (tested as C-terminal acid (-OH)) [Cmpd 5296], the “cAMP, CYCLASE GLP/GIP/CT (RIN) EC50” value in test [3] turned out to be 0.145 nM. For the same molecule, in test [4], the IC50 came out at 4 nM.

B1: Cmpd 5268 (peptide)
peptide: HGEGTFTSDLSKQAEEEAVRLFIEWLKNGKPKK[Gly(octyl)]RYS-OH
modifications: N-terminus assumed
SMILES: CCCCCCCC[C@H](NC(=O)[C@H](CCCCN)NC(=O)[C@H](CCCCN)NC(=O)[C@@H]1CCCN1C(=O)[C@H](CCCCN)NC(=O)CNC(=O)[C@H](CC(N)=O)NC(=O)[C@H](CCCCN)NC(=O)[C@H](CC(C)C)NC(=O)[C@H](Cc1c[nH]c2ccccc12)NC(=O)[C@H](CCC(=O)O)NC(=O)[C@@H](NC(=O)[C@H](Cc1ccccc1)NC(=O)[C@H](CC(C)C)NC(=O)[C@H](CCCNC(=N)N)NC(=O)[C@@H](NC(=O)[C@H](C)NC(=O)[C@H](CCC(=O)O)NC(=O)[C@H](CCC(=O)O)NC(=O)[C@H](CCC(=O)O)NC(=O)[C@H](C)NC(=O)[C@H](CCC(N)=O)NC(=O)[C@H](CCCCN)NC(=O)[C@H](CO)NC(=O)[C@H](CC(C)C)NC(=O)[C@H](CC(=O)O)NC(=O)[C@H](CO)NC(=O)[C@@H](NC(=O)[C@H](Cc1ccccc1)NC(=O)[C@@H](NC(=O)CNC(=O)[C@H](CCC(=O)O)NC(=O)CNC(=O)[C@@H](N)Cc1c[nH]cn1)[C@@H](C)O)[C@@H](C)O)C(C)C)[C@@H](C)CC)C(=O)N[C@@H](CCCNC(=N)N)C(=O)N[C@@H](Cc1ccc(O)cc1)C(=O)N[C@@H](CO)C(=O)O
notes: tested as C-terminal acid (-OH)
Turning to B1, the “cAMP, CYCLASE GLP/GIP/CT (RIN) EC50” value in test [3] was found to be 0.489 nM. The molecule also had an IC50 in test [4] of 0.11 nM.

B2: Cmpd 5269 (peptide)
peptide: HGEGTFTSDLSKQLEEEAVRLFIEFLKNGKPKK[Gly(octyl)]RYS-OH
modifications: N-terminus assumed
SMILES: CCCCCCCC[C@H](NC(=O)[C@H](CCCCN)NC(=O)[C@H](CCCCN)NC(=O)[C@@H]1CCCN1C(=O)[C@H](CCCCN)NC(=O)CNC(=O)[C@H](CC(N)=O)NC(=O)[C@H](CCCCN)NC(=O)[C@H](CC(C)C)NC(=O)[C@H](Cc1ccccc1)NC(=O)[C@H](CCC(=O)O)NC(=O)[C@@H](NC(=O)[C@H](Cc1ccccc1)NC(=O)[C@H](CC(C)C)NC(=O)[C@H](CCCNC(=N)N)NC(=O)[C@@H](NC(=O)[C@H](C)NC(=O)[C@H](CCC(=O)O)NC(=O)[C@H](CCC(=O)O)NC(=O)[C@H](CCC(=O)O)NC(=O)[C@H](CC(C)C)NC(=O)[C@H](CCC(N)=O)NC(=O)[C@H](CCCCN)NC(=O)[C@H](CO)NC(=O)[C@H](CC(C)C)NC(=O)[C@H](CC(=O)O)NC(=O)[C@H](CO)NC(=O)[C@@H](NC(=O)[C@H](Cc1ccccc1)NC(=O)[C@@H](NC(=O)CNC(=O)[C@H](CCC(=O)O)NC(=O)CNC(=O)[C@@H](N)Cc1c[nH]cn1)[C@@H](C)O)[C@@H](C)O)C(C)C)[C@@H](C)CC)C(=O)N[C@@H](CCCNC(=N)N)C(=O)N[C@@H](Cc1ccc(O)cc1)C(=O)N[C@@H](CO)C(=O)O
notes: as for B1
As to B2, the “cAMP, CYCLASE GLP/GIP/CT (RIN) EC50” value in test [3] was 1.31 nM. This molecule gave an IC50 in test [4] of 0.088 nM.
Take HAEGTFTSDVSSYLEGQAAKEFIAWLVKGRGGGIPI (modifications not checked) [Cmpd 4957]: in test [5], the IC50 was 0.1 nM. For the same molecule, the cAMP, CYCLASE GLP/GIP/CT (RIN) EC50 in test [6] amounted to 0.51 nM.
In the case of HAEGTFTSDVSSYLEGQAAKEFIAWLVKGRGGG (not fully specified; modifications not checked) [Cmpd 4844, GLP-1-(7-37)-GG(S)-2,6-diamino-1-(thiazolidin-3-y1)hexan-1-one amide], the cAMP, CYCLASE GLP/GIP/CT (RIN) EC50 in test [6] is 0.13 nM.
Still for that read-out and setting: as for HAEGTFTSDVSSYLEGQAAKEFIAWLVKGRGGG (not fully specified; modifications not checked) [Cmpd 4845, GLP-1-(7-37)-GG-(S)-2,6-diamino-1-(thiazolidin-2-cyano-3-y1)hexan-1-one amide], the figure is 0.4 nM.
For HAEGTFTSDVSSYLEGQAAKEFIAWLVKGRGGGGIPI (modifications not checked) [Cmpd 4887], the IC50 in test [5] was 0.17 nM. The same molecule came in with a cAMP, CYCLASE GLP/GIP/CT (RIN) EC50 in test [6] of 0.22 nM.
For HAEGTFTSDVSSYLEGQAAKEFIAWLVKGRPSGGGIPI (modifications not checked) [Cmpd 4888] the same measures were 0.13 nM and 0.17 nM.

Usually IC50 stands for the concentration that gives 50% inhibition. A low value points to higher potency.

For the origin of these results see patent publication US20100029554A1, “Composition and Methods for Treatment of Congestive Heart Failure” (Amylin Pharmaceuticals, Inc., priority 2006, published 2010).
